Measured values reported in IntAct's records for PubMed 22244754.

B1: Phosphatidylinositol 3,4,5-trisphosphate 5-phosphatase 2 (Homo sapiens), O15357-1 (parent)
chain: MASACGAPGPGGALGSQAPSWYHRDLSRAAAEELLARAGRDGSFLVRDSESVAGAFALCVLYQKHVHTYRILPDGEDFLAVQTSQGVPVRRFQTLGELIGLYAQPNQGLVCALLLPVEGEREPDPPDDRDASDGEDEKPPLPPRSGSTSISAPTGPSSPLPAPETPTAPAAESAPNGLSTVSHDYLKGSYGLDLEAVRGGASHLPHLTRTLATSCRRLHSEVDKVLSGLEILSKVFDQQSSPMVTRLLQQQNLPQTGEQELESLVLKLSVLKDFLSGIQKKALKALQDMSSTAPPAPQPSTRKAKTIPVQAFEVKLDVTLGDLTKIGKSQKFTLSVDVEGGRLVLLRRQRDSQEDWTTFTHDRIRQLIKSQRVQNKLGVVFEKEKDRTQRKDFIFVSARKREAFCQLLQLMKNKHSKQDEPDMISVFIGTWNMGSVPPPKNVTSWFTSKGLGKTLDEVTVTIPHDIYVFGTQENSVGDREWLDLLRGGLKELTDLDYRPIAMQSLWNIKVAVLVKPEHENRISHVSTSSVKTGIANTLGNKGAVGVSFMFNGTSFGFVNCHLTSGNEKTARRNQNYLDILRLLSLGDRQLNAFDISLRFTHLFWFGDLNYRLDMDIQEILNYISRKEFEPLLRVDQLNLEREKHKVFLRFSEEEISFPPTYRYERGSRDTYAWHKQKPTGVRTNVPSWCDRILWKSYPETHIICNSYGCTDDIVTSDHSPVFGTFEVGVTSQFISKKGLSKTSDQAYIEFESIEAIVKTASRTKFFIEFYSTCLEEYKKSFENDAQSSDNINFLKVQWSSRQLPTLKPILADIEYLQDQHLLLTVKSMDGYESYGECVVALKSMIGSTAQQFLTFLSHRGEETGNIRGSMKVRVPTERLGTRERLYEWISIDKDEAGAKSKAPSVSRGSQEPRSGSRKPAFTEASCPLSRLFEEPEKPPPTGRPPAPPRAAPREEPLTPRLKPEGAPEPEGVAAPPPKNSFNNPAYYVLEGVPHQLLPPEPPSPARAPVPSATKNKVAITVPAPQLGHHRHPRVGEGSSSDEESGGTLPPPDFPPPPLPDSAIFLPPSLDPLPGPVVRGRGGAEARGPPPPKAHPRPPLPPGPSPASTFLGEVASGDDRSCSVLQMAKTLSEVDYAPAGPARSALLPGPLELQPPRGLPSDYGRPLSFPPPRIRESIQEDLAEEAPCLQGGRASGLGEAGMSAWLRAIGLERYEEGLVHNGWDDLEFLSDITEEDLEEAGVQDPAHKRLLLDTLQLSK

Variants of: B1
Conditions: with epha2_human EPHA2, P29317
Chain of epha2_human EPHA2, P29317 (P29317 whole entry): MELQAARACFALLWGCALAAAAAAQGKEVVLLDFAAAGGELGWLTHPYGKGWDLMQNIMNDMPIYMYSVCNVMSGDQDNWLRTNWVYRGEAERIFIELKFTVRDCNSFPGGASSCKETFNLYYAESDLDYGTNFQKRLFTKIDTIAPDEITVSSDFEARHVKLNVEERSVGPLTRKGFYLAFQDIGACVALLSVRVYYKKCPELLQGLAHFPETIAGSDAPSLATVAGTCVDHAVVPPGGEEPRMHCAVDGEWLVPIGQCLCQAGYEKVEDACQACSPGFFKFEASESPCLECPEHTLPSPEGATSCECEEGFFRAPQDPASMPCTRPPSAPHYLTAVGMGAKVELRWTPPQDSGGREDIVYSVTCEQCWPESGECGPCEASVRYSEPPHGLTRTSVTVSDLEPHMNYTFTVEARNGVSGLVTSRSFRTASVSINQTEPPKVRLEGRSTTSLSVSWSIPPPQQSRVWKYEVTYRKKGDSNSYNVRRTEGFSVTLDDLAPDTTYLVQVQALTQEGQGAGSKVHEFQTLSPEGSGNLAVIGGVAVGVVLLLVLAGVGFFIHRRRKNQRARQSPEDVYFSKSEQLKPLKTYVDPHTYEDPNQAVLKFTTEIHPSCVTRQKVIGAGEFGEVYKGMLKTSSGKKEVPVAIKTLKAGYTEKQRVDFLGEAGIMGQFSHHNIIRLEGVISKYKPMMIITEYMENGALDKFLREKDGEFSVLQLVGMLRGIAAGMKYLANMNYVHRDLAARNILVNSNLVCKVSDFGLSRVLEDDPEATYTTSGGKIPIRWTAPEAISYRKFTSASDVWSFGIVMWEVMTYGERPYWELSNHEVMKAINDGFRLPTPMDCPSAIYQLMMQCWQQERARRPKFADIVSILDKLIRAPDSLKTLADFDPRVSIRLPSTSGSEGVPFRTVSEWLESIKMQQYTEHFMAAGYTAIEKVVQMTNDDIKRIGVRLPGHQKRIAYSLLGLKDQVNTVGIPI

| effect of a mutation on the interaction | Variant |
| --- | --- |
| increasing interaction | H1219S |

Variants of: B1
Conditions: with epha2_human EPHA2, P29317
Remark: another data set of the same source

| effect of a mutation on the interaction | Variant |
| --- | --- |
| disrupting interaction | D1223A;D1224A |
